Values belong to the substance of their own block, whether it stands above or below them.
How the values were obtained:
[1] = target: full-length human Neu3 tagged at the C-terminus with a c-Myc epitope (human); experiment: non-reducing SDS-PAGE with Western blot; total homogenates of NEU3-transfected CHO-K1 cells separated by SDS-PAGE with or without 5% beta-mercaptoethanol; blotted with anti-Neu3 antibody
[2] = target: caveolin-1 (Chinese hamster (endogenous in CHO-K1)); experiment: cross-linking; intact CHO-K1 cells, 0.5 mM membrane-permeable DSP, room temperature, 45 min, quenched with 50 mM glycine; SDS-PAGE and Western blot; cross-link reversed by beta-mercaptoethanol
[3] = target: GPI-YFP, a fusion protein containing the total sequence of YFP fused to a glycosylphosphatidylinositol (GPI)-membrane attachment signal; experiment: cross-linking; intact CHO-K1 cells, 2 mM membrane-impermeable BS3, 4 °C, 45 min, quenched with 50 mM glycine; SDS-PAGE and Western blot

percent of the total enzyme in the ~125 kDa band [1]: 25%
stoichiometry N [1]: 2
Substance: full-length human Neu3 tagged at the C-terminus with a c-Myc epitope (enzyme)

stoichiometry N [2]: 2
Substance: caveolin-1 (natural protein)

stoichiometry N [3]: 2
Substance: GPI-YFP, a fusion protein containing the total sequence of YFP fused to a glycosylphosphatidylinositol (GPI)-membrane attachment signal

From PMC5482835
